Source: the supplement of paper PMC6757056
± gives the standard deviation of the averaged measurements.

B1: library; a variant is named by its letters at N, in order (parent)
chain: GCUGUCACCGGUGUAUUACCCUAGUGGUCGACCGGUCUGAUGAGUCUNNNNNNAGACGAAACAGC

Key:
hypoxanthine [1] = variants of: B1; assay: FACS-Seq fitted mean relative fluorescence mCherry/BFP without ligand (log10 relative fluorescence); ligand: hypoxanthine (xanthine aptamer); higher = higher reporter protein expression; details: HEK293T, ligand present: no
Summary of the method: (§1)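 Sorting into 6 bins by mCherry/BFP followed 48 h of incubation with or without ligand. The cells were enriched HEK293T libraries lentivirally bearing an mCherry reporter with the ribozyme switch and an EF1α-BFP marker, and bin genomic DNA was PCR-amplified, barcoded and sequenced on MiSeq. Fluorescence is the fitted normal mean of the bin counts. Means were fitted on log10(mCherry/BFP), scaled to five spiked-in control ribozymes.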

hypoxanthine [2] = variants of: B1; assay: normalized RNA/DNA level with ligand (relative to sTRSVctl = 100) (log10 (% of sTRSVctl)); ligand: hypoxanthine (xanthine aptamer); higher = less ribozyme self-cleavage, higher mRNA level; details: ligand concentration (+) RNA-Seq: 5 mM, HEK293T, reporter: mCherry (pCS4076), ligand present: yes
Summary of the method: (§2)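 Only sequences with at least 100 DNA reads were analyzed, from HEK293T cells transfected with 4 µg per 6-well well of ribozyme switch library plasmids 72 h before RNA extraction with EDTA. Any ligand was added 1 h before transfection. RNA level was defined as RNA over DNA reads, normalized to a spiked-in non-cleaving sequence or to the top sequences, then scaled and log-transformed. The top set was 25 sequences, and the scaling was ×100 followed by log10.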

hypoxanthine [3] = variants of: B1; assay: normalized RNA/DNA level without ligand (relative to sTRSVctl = 100) (log10 (% of sTRSVctl)); ligand: hypoxanthine (xanthine aptamer); higher = less ribozyme self-cleavage, higher mRNA level; details: HEK293T, reporter: mCherry (pCS4076), ligand present: no
Summary of the method: as §2

hypoxanthine [4] = variants of: B1; assay: FACS-Seq fitted mean relative fluorescence mCherry/BFP with ligand (log10 relative fluorescence); ligand: hypoxanthine (xanthine aptamer); ligand concentration (+) FACS-Seq: 5 mM; higher = higher reporter protein expression; details: HEK293T, ligand present: yes
Summary of the method: as §1

Variant	FACS-Seq fitted mean (log10) (hypoxanthine [1])	normalized RNA/DNA level with ligand (log10) (hypoxanthine [2])	normalized RNA/DNA level without ligand (log10) (hypoxanthine [3])	FACS-Seq fitted mean (log10) (hypoxanthine [4])
CCGCUA	0.42 ± 0.077	2.03 ± 0.053	1.827 ± 0.01	0.474 ± 0.034
ACGCAU	0.3211 ± 0.00042	1.79 ± 0.021	1.42 ± 0.032	0.534 ± 0.042
ACGCAG	-0.302 ± 0.02	1.58 ± 0.041	1.09 ± 0.044	0.377 ± 0.039
ACGCAA	0.184 ± 0.18	1.88 ± 0.022	1.55 ± 0.039	0.149 ± 0.02
ACGGCG	-0.0504 ± 0.0018	1.91 ± 0.025	1.42 ± 0.015	0.466 ± 0.082
UCGGUA	0.215 ± 0.024	1.912 ± 0.014	1.562 ± 0.014	0.485 ± 0.04
GCGACG	0.442 ± 0.017	1.81 ± 0.021	1.3 ± 0.099	0.666 ± 0.035
GCGACC	0.07588 ± 0.00049	1.88 ± 0.025	1.52 ± 0.038	0.5 ± 0.093
GCGACA	0.145 ± 0.041	1.888 ± 0.012	1.57 ± 0.04	0.28 ± 0.021
CCCUAA	0.693 ± 0.022	1.94 ± 0.022	1.907 ± 0.011	0.837 ± 0.06
CCGACU	0.195 ± 0.058	1.989 ± 0.013	1.82 ± 0.038	0.381 ± 0.0067
CCGACG	0.527 ± 0.0072	1.9241 ± 0.0017	1.685 ± 0.0014	0.6331 ± 0.0049
CCGACC	0.287 ± 0.081	2.08 ± 0.082	1.85 ± 0.063	0.555 ± 0.015
GCGAAA	0.172 ± 0.045	1.878 ± 0.0072	1.49 ± 0.019	0.404 ± 0.021
GCGAAC	0.0198 ± 0.0047	1.711 ± 0.0065	1.13 ± 0.044	0.61 ± 0.033
GCGAAU	-0.142 ± 0.009	1.833 ± 0.015	1.417 ± 0.013	0.291 ± 0.022
GCGAAG	-0.383 ± 0.014	1.46 ± 0.12	0.925 ± 0.14	0.417 ± 0.06
GCGCCC	0.221 ± 0.029	1.95 ± 0.071	1.742 ± 0.0061	0.44444 ± 0.00011
ACGCGC	0.307 ± 0.06	1.88 ± 0.052	1.54 ± 0.019	0.7 ± 0.02
ACGCGG	-0.216 ± 0.014	1.6394 ± 0.00079	1.22 ± 0.012	0.465 ± 0.047
UCCUAC	0.76 ± 0.022	2.01 ± 0.096	1.88 ± 0.076	0.751 ± 0.058
UCCUGC	0.86 ± 0.054	2.01 ± 0.056	1.919 ± 0.018	0.812 ± 0.091
UCCUGG	0.439 ± 0.047	1.94 ± 0.025	1.77 ± 0.073	0.518 ± 0.021
ACCUGG	0.3055 ± 0.0017	1.914 ± 0.011	1.55 ± 0.021	0.817 ± 0.071

Variant	FACS-Seq fitted mean (log10) (hypoxanthine [1])	normalized RNA/DNA level with ligand (log10) (hypoxanthine [2])	normalized RNA/DNA level without ligand (log10) (hypoxanthine [3])	FACS-Seq fitted mean (log10) (hypoxanthine [4])
ACCUGA	0.156 ± 0.046	1.96 ± 0.021	1.79 ± 0.049	0.323 ± 0.057
ACGAGG	-0.105 ± 0.022	1.412 ± 0.013	1.04 ± 0.14	0.777 ± 0.034
ACGAGC	0.0832 ± 0.041	1.84 ± 0.049	1.27 ± 0.045	0.585 ± 0.029
ACGAGA	-0.0663 ± 0.023	1.67 ± 0.045	1.14 ± 0.019	0.488 ± 0.018
ACGAGU	0.0593 ± 0.021	1.76 ± 0.022	1.11 ± 0.047	0.609 ± 0.0067
UCGCAG	0.221 ± 0.04	1.918 ± 0.015	1.65 ± 0.078	0.46 ± 0.083
UCGCAA	0.477 ± 0.093	1.9 ± 0.032	1.6 ± 0.06	0.599 ± 0.058
CCCUGA	0.263 ± 0.023	1.92 ± 0.031	1.88 ± 0.039	0.308 ± 0.011
GCGGUG	0.212 ± 0.007	1.79 ± 0.053	1.41 ± 0.097	0.623 ± 0.019
GCGGUC	0.327 ± 0.046	1.878 ± 0.015	1.5197 ± 0.00012	0.644 ± 0.063
GCGGUA	0.439 ± 0.019	1.943 ± 0.0021	1.68 ± 0.036	0.677 ± 0.034
ACGAAA	0.129 ± 0.049	1.86 ± 0.039	1.47 ± 0.056	0.425 ± 0.036
ACGAAU	0.0248 ± 0.013	1.77 ± 0.0059	1.19 ± 0.025	0.504 ± 0.01
ACGAAG	-0.023 ± 0.0073	1.49 ± 0.041	1.072 ± 0.0031	0.501 ± 0.023
CCGAUU	0.52 ± 0.04	1.963 ± 0.019	1.78 ± 0.027	0.524 ± 0.036
UCGGAG	-0.494 ± 0.057	1.8831 ± 0.00053	1.41 ± 0.064	-0.522 ± 0.082
ACGGAG	-0.0823 ± 0.0037	1.62 ± 0.031	1.12 ± 0.052	0.482 ± 0.12
ACGGAC	0.332 ± 0.11	1.92 ± 0.06	1.7 ± 0.029	0.565 ± 0.062
ACGGAU	-0.0352 ± 0.029	1.7216 ± 0.0016	1.24 ± 0.068	0.537 ± 0.024
ACGGAA	0.072 ± 0.016	1.891 ± 0.013	1.45 ± 0.034	0.327 ± 0.04
CCCUCU	0.556 ± 0.081	1.98 ± 0.036	1.994 ± 0.015	0.481 ± 0.086
GCCGCA	0.533 ± 0.054	1.96 ± 0.067	1.845 ± 0.0021	0.587 ± 0.027
GCCGCG	0.226 ± 0.012	1.94 ± 0.045	1.521 ± 0.0049	0.576 ± 0.024
UCGUGC	0.446 ± 0.039	1.953 ± 0.016	1.78 ± 0.072	0.686 ± 0.013

Variant	FACS-Seq fitted mean (log10) (hypoxanthine [1])	normalized RNA/DNA level with ligand (log10) (hypoxanthine [2])	normalized RNA/DNA level without ligand (log10) (hypoxanthine [3])	FACS-Seq fitted mean (log10) (hypoxanthine [4])
UCGUGG	0.572 ± 0.0094	1.9 ± 0.024	1.593 ± 0.0033	0.819 ± 0.066
UCGUGA	0.414 ± 0.036	1.84 ± 0.022	1.27 ± 0.039	0.578 ± 0.16
UCCGUG	0.223 ± 0.023	1.91 ± 0.071	1.47 ± 0.072	0.508 ± 0.065
UCCGUU	-0.463 ± 0.04	1.946 ± 0.016	1.925 ± 0.019	-0.148 ± 0.1
GCGUAC	-0.0412 ± 0.02	1.82 ± 0.069	1.33 ± 0.025	0.4627 ± 0.0021
GCGUAG	-0.175 ± 0.014	1.566 ± 0.0039	1.15 ± 0.062	0.539 ± 0.027
GCGUAU	0.549 ± 0.031	1.83 ± 0.037	1.49 ± 0.046	0.824 ± 0.043
GCGAUU	-0.0877 ± 0.0032	1.88 ± 0.06	1.65 ± 0.026	0.166 ± 0.016
GCGAUC	0.2339 ± 0.00091	1.87 ± 0.041	1.46 ± 0.038	0.601 ± 0.025
GCGAUG	0.314 ± 0.033	1.77 ± 0.028	1.24 ± 0.092	0.754 ± 0.064
GCCGAU	0.193 ± 0.041	1.96 ± 0.027	1.76 ± 0.045	-0.0573 ± 0.24
ACGACU	0.28 ± 0.024	1.84 ± 0.039	1.59 ± 0.0056	0.447 ± 0.037
ACGACA	0.53 ± 0.013	1.912 ± 0.013	1.638 ± 0.016	0.613 ± 0.031
ACGACG	0.162 ± 0.0022	1.82 ± 0.045	1.26 ± 0.019	0.706 ± 0.059
ACGAUA	0.143 ± 0.0029	1.87 ± 0.03	1.582 ± 0.013	0.508 ± 0.011
ACGAUG	0.311 ± 0.018	1.734 ± 0.013	1.23 ± 0.036	0.629 ± 0.079
ACCUUG	0.241 ± 0.0074	1.88 ± 0.014	1.6 ± 0.055	0.521 ± 0.04
UCCGGA	0.226 ± 0.02	1.96 ± 0.031	1.75 ± 0.021	0.384 ± 0.0052
UCCGGG	-0.0285 ± 0.023	1.98 ± 0.047	1.93 ± 0.031	0.2736 ± 0.00093
UCGCGU	0.334 ± 0.04	1.9 ± 0.026	1.56 ± 0.048	0.509 ± 0.016
ACGUGG	0.0467 ± 0.0087	1.54 ± 0.018	1.13 ± 0.016	0.697 ± 0.018
ACGUGU	0.135 ± 0.003	1.87 ± 0.047	1.4 ± 0.027	0.682 ± 0.074
ACGUGA	-0.0934 ± 0.0088	1.808 ± 0.01	1.17 ± 0.023	0.256 ± 0.055
